# Test: soluble on expression in E. coli; label from the status in PepcDB or PDB records
row,Sequence,soluble on expression in E. coli
1,TLWPREVEGGQGKPSHGCRAASKARLEAKPANSPFPSHPSLAHITQFRMMVSLGHLAKGASLDDLIDSCIQSFDADGNLCRSNQLLQVMLTMHRIVISSAELLQKVITLYKDALAKNSPGLCLKICYFVRYWITEFWVMFKMDASLTDTMEEFQELVKAKGEELHCRLIDTTQINARDWSRKLTQRIKSNTSKKRKVSLLFDHLEPEELSEHLTYLEFKSFRRISFSDYQNYLVNSCVKENPTMERSIALCNGISQWVQLMVLSRPTPQLRAEVFIKFIQVAQKLHQLQNFNTLMAVIGGLCHSSISRLKETSSHVPHEINKVLGEMTELLSSSRNYDNYRRAYGECTDFKIPILGVHLKDLISLYEAMPDYLEDGKVNVHKLLALYNHISELVQLQEVAPPLEANKDLVHLLTLSLDLYYTEDEIYELSYAREPRNHRAPPLTPSKPPVVVDWASGVSPKPDPKTISKHVQRMVDSVFKNYDHDQDGYISQEEFEKIAASFPFSFCVMDKDREGLISRDEITAYFMRASSIYSKLGLGFPHNFQETTYLKPTFCDNCAGFLWGVIKQGYRCKDCGMNCHKQCKDLVVFECKKRAKNPVAPTENNTSVGPVSNLCSLGAKDLLHAPEEGPFTFPNGEAVEHGEESKDRTIMLMGVSSQKISLRLKRAVAHKATQTESQPWIGSEGPSGPFVLSSPRKTAQDTLYVLPSPTSPCPSPVLVRKRAFVKWENKDSLIKSKEELRHLRLPTYQELEQEINTLKADNDALKIQLKYAQKKIESLQLEKSNHVLAQMEQGDCS,soluble
2,MAHHHHHHMSPASLAKSSQDKTAPSTEGTTRFGDSSPPVAAAASPAMYGQPWNTPTTLHSLVESVTRESGEAAAARAGTSKSTVPRLAVSRSLPCSTTVVQETVTNTGRVVSTVATGAAAPSSLLTGTDTPTPLWRSTATTAAVRAEHLRELEDFLEQRGGRGTSMEGRHKVIQKALSLLPVVYPPLAKVAEPMQRYIEDVAASLRRAATEKGRSAAASGERAVRAVRSVFRREDTRAHAGEEAGRGGGKGGARCRLSPCVQERDVELMAVKEQLMQRMNTCEKTEDQFRDFRHLIASVFNTNQQLNLRIEQLEEVLARHRIDLPPASEEMMAFQTSLDGQRSFVPQASTVDGDGDDDSSSGG,not soluble
3,MTTKRKETRESVCYREIKKKIRNGELKPGDRLIENTLSEQLGISRTPIRKAIGMLAADGYVEYNDFRGAFVRDSIINKERYFEMTEILGLFLKQAIQKIRTKKISFNKMRVVAKLVEIERDVEPSDPAVYFEYEKWFVNDLLTYMKNNYYLKISNDFFNNIQEFGDEEVIKIAQNACVKTIANIQRFIDALEAQNYDECMAIIDQVIDAHVLVAYR,not soluble
4,MNKALSVENLGFYYQAENFLFQQLNFDLNKGDILAVLGQNGCGKSTLLDLLLGIHRPIQGKIEVYQSIGFVPQFFSSPFAYSVLDIVLMGRSTHINTFAKPKSHDYQVAMQALDYLNLTHLAKREFTSLSGGQRQLILIARAIASECKLILLDEPTSALDLANQDIVLSLLIDLAQSQNMTVVFTTHQPNQVVAIANKTLLLNKQNFKFGETRNILTSENLTALFHLPMFEQQAQYKESFFTHFVPLYKTLLK,soluble
5,KRGTDLGRPINATFDFFSRLFSKRKNVHMTFFNSSTPLDVNYTPNQQEIDTILDKISRSGYESLTKEEKQKLFKASQK,not soluble
6,MSLRKMKRFYIASEEEIKTGKTTDIYFLRTRKILETKNIRKKVLADVTTTSLPENWKWGVLVGVEEVAKLLEGIPVNVYAMPEGTIFHPYEPVLQIEGDYADFGIYETALLGMLSQASGIATAALRIKIAAKFKPVYSFGIRHMHPAIAPMIDRAAFIGGCDGVSGVLGAEMMGEKAVGTMPHALIITVGDQVKAWKYFDEVIEKEVPRIALVDTFYDEKIEAVMAAEALGKKLSAVRLDTPSSRRGNFRRIIEEVKWELKIRGYDWVKILISGGLDEEKIKEIVDVADAFGVGSAIASAKPIDFALDIVEVEGKPIAKRGKLSGRKQVYRCENGHYHVVPADKKLERCPVCNAKVEPLLKPIIENGEIVVEFPKARDIREYVLEQAKKFNLEIEGHHHHHH,not soluble
7,MAEIDYKKVTGMIHSTESFGSVDGPGIRFIIFMQGCKMRCQYCHNPDTWEMETNNSKERTVEDVLKEALRYKHFWGKDGGITVSGGEAMLQIDFITALFIEAKKLGIHTTLDTCGFAYRATPEYHAILEKLLDVTDLVLLDLKEIDSEQHKIVTRQSNKNILQFARYLSDRGTPVWIRHVLVPGLTD,not soluble
8,ATRRRSLSCYVWIATFGMRYTHEFNKVIRDYVRGHASQIRKRLLPKALEVFASHRIAGDCVVVATGAPPELVREILALVADQQEVVPVIGSSIVPRLGAIIVARHCHHEEKMRMLREQGYGDVAVAYSDSTADLPLLMAAKVPVVVNPKPKREKLFRRVLQP,not soluble

# Source: the DeepSol protein solubility set
